Experiment [1] addresses T1, N-terminal His-tagged BMP10 expressed by the pLN1V5_human BMP10 vector (human, UniProt O95393 22-424).
T1 sequence: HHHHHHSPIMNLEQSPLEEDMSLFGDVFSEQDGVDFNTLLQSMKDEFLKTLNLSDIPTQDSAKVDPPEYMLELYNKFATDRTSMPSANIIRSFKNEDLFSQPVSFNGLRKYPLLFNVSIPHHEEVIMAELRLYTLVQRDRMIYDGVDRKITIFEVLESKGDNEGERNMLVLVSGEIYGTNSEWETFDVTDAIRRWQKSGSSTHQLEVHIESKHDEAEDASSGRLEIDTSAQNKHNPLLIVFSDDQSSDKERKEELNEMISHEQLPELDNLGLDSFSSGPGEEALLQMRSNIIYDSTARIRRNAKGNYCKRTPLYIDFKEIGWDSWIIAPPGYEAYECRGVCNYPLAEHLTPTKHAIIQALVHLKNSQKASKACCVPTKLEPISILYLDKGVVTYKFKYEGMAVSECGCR
Briefly: antigen-immobilized ELISA, antigen coated at 3 ug/mL. The method, then: (§1) Antigen immobilized ELISA of the obtained antibodies was performed using the chimeric protein. 3 μg/mL of the recombinant human BMP9, BMP10, and BMP9/10 chimeric proteins of Example 20-2 in 50 mmol/L NaHCO₃ buffer were added to a 96-well plate for ELISA (F96 MAXISORP NUNC-IMMUNO PLATE, manufactured by Thermo Fisher Scientific, Cat#442404) at an amount of 50 μL/well, and left at 4° C. overnight for adsorption.
(§2) After removal of the reagent for immobilization, 200 μL/well of 1% BSA-PBS was added, and left at room temperature for 1 hour for blocking, and washing was carried out using PBST five times. […]
(§3) The plate was washed with PBST ten times, and 50 μL/well of the TMB chromogen reagent (TMB+Substrate-Chromogen, manufactured by Dako, Cat#S 1599) was added for chromogenic reaction. When the intensity of chromogenic reaction became strong enough, 50 μL/well of a 1 N sulfuric acid solution (manufactured by Wako, Cat#192-04755) was added, and absorbance at 450 nm and 570 nm was determined using a Multiskan Spectrum (manufactured by Thermo Labsystems).
On the technique in general: ELISA stands for enzyme-linked immunosorbent assay.

Experiment [2] addresses T2, human mature dimer BMP10 recombinant protein (manufactured by R&D systems, Cat#2926-BP) (human, UniProt O95393 317-424).
T2 construct: Bought protein; also called human BMP10
T2 sequence: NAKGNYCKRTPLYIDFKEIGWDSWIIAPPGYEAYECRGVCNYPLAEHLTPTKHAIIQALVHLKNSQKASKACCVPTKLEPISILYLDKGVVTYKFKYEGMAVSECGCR
Briefly: ELISA, immobilized antigen (100 ng/mL coat), biotin-labeled antibody at 100 ng/mL, absorbance 450-570 nm. The method, then: To examine specificity of the obtained antibodies to human BMP9, their binding ability to human BMP9 and human BMP10 having the highest homology to human BMP9 was tested by comparison. First, 100 ng/mL of human mature dimer BMP9 recombinant protein (manufactured by R&D systems, Cat#3209-BP), or human mature dimer BMP10 recombinant protein (manufactured by R&D systems, Cat#2926-BP) prepared in 50 mmol/L NaHCO₃ buffer (manufactured by Wako, Cat#191-01305) was added to a 96-well plate for ELISA (F96 MAXISORP NUNC-IMMUNO PLATE, manufactured by Thermo Fisher Scientific, Cat#442404) at an amount of 50 μL/well, and left at 4° C. overnight for adsorption.
Subsequently, 6D10-1-1 antibody, 10D5-2-3 antibody, 3B7-3-3 antibody, R&D antibody, or anti-BMP10 antibody (manufactured by R&D, Cat#MAB2926) that was labeled with biotin using a Biotin Labeling Kit-NH2 (manufactured by COSMO BIO, Cat#LK03) was prepared at a concentration of 100 ng/mL using 10% Super Block in TBST which was prepared by mixing SuperBlock and TBST at a ratio of 1:9. 50 μL/well thereof was aliquoted as a primary antibody, and left at room temperature for 1 hour.
(§4) The plate was washed with TBST five times, and 50 μL/well of the TMB substrate reagent (TMB+ Substrate-Chromogen, manufactured by Dako, Cat#S1599) was added for color-development. When proper color was developed, 50 μL/well of the 1 N sulfuric acid solution (manufactured by Wako, Cat#192-04755) was added, and absorbance (450 nm-570 nm) at a sample wavelength of 450 nm and at a reference wavelength of 570 nm was determined using a plate reader (manufactured by Spectra Max, Molecular Devices).

In experiment [3] the target is T3, human BMP9 recombinant protein prepared according to Example 12 of WO 2010/126169 (N-terminal His-tagged … (human, UniProt Q9UK05 320-429; Q9UK05 23-319).
T3 construct: not shown: N-terminal His tag
T3 sequence 1: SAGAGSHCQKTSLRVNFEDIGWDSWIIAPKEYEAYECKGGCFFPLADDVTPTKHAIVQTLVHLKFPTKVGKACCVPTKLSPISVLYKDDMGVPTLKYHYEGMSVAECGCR
T3 sequence 2: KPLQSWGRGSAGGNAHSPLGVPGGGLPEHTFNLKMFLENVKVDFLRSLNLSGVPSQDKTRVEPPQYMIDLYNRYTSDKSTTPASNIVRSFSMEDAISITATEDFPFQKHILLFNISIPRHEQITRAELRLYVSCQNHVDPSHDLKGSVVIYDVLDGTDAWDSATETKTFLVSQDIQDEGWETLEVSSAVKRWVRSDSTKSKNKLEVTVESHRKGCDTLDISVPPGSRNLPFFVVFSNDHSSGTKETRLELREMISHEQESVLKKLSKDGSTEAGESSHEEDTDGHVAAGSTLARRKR
In words: SPR (BIAcore 2000), antibody captured on anti-mouse IgG, human BMP9 recombinant protein as analyte, single cycle kinetics. An excerpt: The binding activity (affinity) of the obtained antibodies to human BMP9 recombinant protein was examined using BIAcore 2000 (manufactured by GE Healthcare). After anti-mouse IgG antibody was immobilized onto a CM5 sensor chip using a Mouse Antibody Capture Kit (manufactured by GE Healthcare), anti-human BMP9 antibody was coupled to an RU value of 700-1100.
Thereafter, 0.152 nmol/L, 0.457 nmol/L, 1.37 nmol/L, 4.1 nmol/L, 12.3 nmol/L, 36.89 nmol/L, 110.67 nmol/L, and […] of the human BMP9 recombinant protein prepared in Example 7-1 were prepared by using an HBS-EP solution (manufactured by GE Healthcare) and added as analytes, and binding affinity was measured.
Based on the obtained values, the dissociation constant (Kd value) was calculated by single cycle kinetics (BIAevaluation Software ver. 3, manufactured by GE Healthcare).
On the technique in general: Surface plasmon resonance follows binding to a sensor surface in real time, without labels.

In experiment [4] the target is T4, human mature dimer BMP9 recombinant protein (manufactured by R&D systems, Cat#3209-BP) (human, UniProt Q9UK05 320-429).
T4 construct: Bought protein; also called human BMP9; human BMP9 recombinant protein (manufactured by R&D systems)
T4 sequence: T3 sequence 1
Briefly: ELISA, immobilized human BMP9 (100 ng/mL coat), biotin-labeled antibody titrated, absorbance 450-570 nm; unit ng/mL from the legend. The method, then: First, 100 ng/mL of human mature dimer BMP9 recombinant protein (manufactured by R&D systems, Cat#3209-BP) prepared in 50 mmol/L NaHCO₃ buffer was added to a 96-well plate for ELISA (F96 MAXISORP NUNC-IMMUNO PLATE, manufactured by Thermo Fisher Scientific, Cat#439454) at an amount of 50 μL/well, and left at 4° C. overnight for adsorption.
After removal of the reagent for immobilization, 200 μL/well of SuperBlock (manufactured by Thermo […], Cat#37535) was added, and left at room temperature for 1 hour for blocking, and washing was carried out using TBST three times. Subsequently, the biotin-labeled 6D10-1-1 antibody, 10D5-2-3 antibody, 3B7-3-3 antibody or R&D antibody was prepared at a concentration of 1, 5, 20, 100, or 300 ng/mL using 10% Super Block in TBST. Each 50 μL/well thereof was aliquoted, and left at room temperature for 1 hour.
as §4

Experiment [5] deals with T5, chimeric protein 5 of human BMP9/10 region C (human, UniProt Q9UK05 320-429; Q9UK05 23-319).
T5 construct: Made in the pLN1V5_human BMP9 vector (His-tagged complex); also called Chimera 5; human BMP9/BMP10 chimeric protein 5; not shown: N-terminal His tag
T5 chain 1: T3 sequence 1 with S80E, V84I, L95Y, Y97F, H98K, S103A, A105S
T5 chain 2: T3 sequence 2
In words: antigen-immobilized ELISA, antigen coated at 3 ug/mL, antibody 1000 ng/mL; + = absorbance of 1 or more. The method, then: as §1, §2, §3

Substitutions are numbered along the chain they refer to.

B1: 6D10-1-1 antibody (antibody, mouse IgG1, V domains shown)
VH: QVQLQQSGAELVRPGTSVKVSCKASGYAFTNYLMEWIKQRPGQGLEWIGVIHPGIGVTNYNEKFKGKATLTADISSSTAYMQLSSLTSEDSAVYFCARRANWDLYYFDYWGQGTTLTVSS
VL: DIQMTQITSSLSASLGDRVTISCSASQDISNYLNWYQQKPDGTVKLLIYYTSSLHSEVPSRFSGSGSGTDYSLTISNLEPEDIATYYCQQYINLPLTFGAGTKLELKR
notes: Mouse monoclonal from a BMP9 KO mouse hybridoma; also called 610D-1-1 antibody
For B1, in experiment [1], the binding result is “no binding”. Moreover, the binding result in experiment [2] is given as “no binding (tested: 100 ng/mL)”. Besides, in experiment [3], the Kd turned out to be 0.0297 nM and the “Relative binding affinity (to R&D antibody)” value amounted to 20.7 fold. Further, the “EC50 (read off the curve)” value in experiment [4] was ~8 ng/mL.

B2: 10D5-2-3 antibody (antibody, mouse IgG1, V domains shown)
VH: EVKLEESRGGLVQPGGSMKLSCVASGFTFSNYWMNWVRQSPEKGLEWVAHIRLKSDNYATHYAESVRGRFTISRDDSKSSVFLQMNNLRAEDTGIYYCTGGSNYVFAFWGQGTLVTVSA
VL: not shown
notes: Mouse monoclonal from a BMP9 KO mouse hybridoma; mouse IgG1 heavy chain, kappa light chain
In the case of B2, the binding result is reported as “binds” in experiment [5], “no binding” in experiment [1] and “no binding (tested: 100 ng/mL)” in experiment [2]. Also, the Kd in experiment [3] amounted to 0.00969 nM. Moreover, the “Relative binding affinity (to R&D antibody)” value in experiment [3] is 63.6 fold.

As a reminder, the Kd is the equilibrium constant for the complex coming apart. The EC50 (read off the curve) is the concentration that produces a half-maximal response.

These data come from patent publication US20140056902A1 (Kyowa Kirin, published 2014).
